# Reference: patent publication US20260028402A1 (published 2026)
# Where two headings read alike, the source gives them in different places.
# T1: MusCD100-His (mouse, UniProt O09126 24-733)
# T1 chain: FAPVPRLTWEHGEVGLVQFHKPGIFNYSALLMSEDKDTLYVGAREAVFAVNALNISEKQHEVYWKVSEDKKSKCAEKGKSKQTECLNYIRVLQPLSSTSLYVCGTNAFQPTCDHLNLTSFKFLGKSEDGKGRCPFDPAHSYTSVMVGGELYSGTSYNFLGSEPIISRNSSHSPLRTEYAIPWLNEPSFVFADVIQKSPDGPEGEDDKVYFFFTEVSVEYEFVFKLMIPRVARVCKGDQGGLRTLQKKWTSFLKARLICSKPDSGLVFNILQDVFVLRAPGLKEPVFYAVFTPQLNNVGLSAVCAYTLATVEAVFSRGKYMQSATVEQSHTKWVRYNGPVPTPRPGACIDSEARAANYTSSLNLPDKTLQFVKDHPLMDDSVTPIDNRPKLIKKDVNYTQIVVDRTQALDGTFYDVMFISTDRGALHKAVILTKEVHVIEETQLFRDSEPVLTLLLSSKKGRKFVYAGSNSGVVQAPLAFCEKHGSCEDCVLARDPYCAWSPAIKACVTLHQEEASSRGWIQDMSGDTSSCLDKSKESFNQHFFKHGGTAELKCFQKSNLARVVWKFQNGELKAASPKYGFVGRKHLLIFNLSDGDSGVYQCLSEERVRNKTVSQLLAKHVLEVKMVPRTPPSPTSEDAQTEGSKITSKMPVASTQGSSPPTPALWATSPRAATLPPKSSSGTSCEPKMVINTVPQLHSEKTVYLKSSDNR
# T2: MusCD100-Fc (mouse, UniProt O09126 24-733, biotinylated in the Plexin binding and blocking assays (sites not given))
# T2 chain: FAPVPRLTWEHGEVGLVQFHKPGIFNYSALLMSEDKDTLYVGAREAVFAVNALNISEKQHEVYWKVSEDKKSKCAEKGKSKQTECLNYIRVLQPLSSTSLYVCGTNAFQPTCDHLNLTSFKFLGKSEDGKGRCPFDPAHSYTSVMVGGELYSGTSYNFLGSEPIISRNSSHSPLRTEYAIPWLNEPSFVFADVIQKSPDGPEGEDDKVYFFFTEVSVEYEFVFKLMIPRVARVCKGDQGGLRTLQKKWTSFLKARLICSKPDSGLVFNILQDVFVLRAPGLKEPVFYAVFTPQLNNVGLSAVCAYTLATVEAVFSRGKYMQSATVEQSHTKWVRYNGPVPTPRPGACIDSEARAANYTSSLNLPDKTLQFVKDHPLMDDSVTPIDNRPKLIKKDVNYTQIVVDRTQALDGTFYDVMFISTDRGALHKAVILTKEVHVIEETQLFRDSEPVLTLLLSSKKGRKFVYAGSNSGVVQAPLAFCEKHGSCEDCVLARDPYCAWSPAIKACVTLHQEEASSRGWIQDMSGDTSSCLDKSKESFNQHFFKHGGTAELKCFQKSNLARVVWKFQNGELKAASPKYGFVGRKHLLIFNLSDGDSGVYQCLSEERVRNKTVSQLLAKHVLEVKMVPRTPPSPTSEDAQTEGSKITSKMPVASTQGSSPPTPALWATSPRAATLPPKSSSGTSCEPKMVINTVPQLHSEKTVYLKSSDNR
# T3: full-length mouse CD100 protein MusCD100 on cells (mouse, UniProt O09126 24-861)
# T3 chain: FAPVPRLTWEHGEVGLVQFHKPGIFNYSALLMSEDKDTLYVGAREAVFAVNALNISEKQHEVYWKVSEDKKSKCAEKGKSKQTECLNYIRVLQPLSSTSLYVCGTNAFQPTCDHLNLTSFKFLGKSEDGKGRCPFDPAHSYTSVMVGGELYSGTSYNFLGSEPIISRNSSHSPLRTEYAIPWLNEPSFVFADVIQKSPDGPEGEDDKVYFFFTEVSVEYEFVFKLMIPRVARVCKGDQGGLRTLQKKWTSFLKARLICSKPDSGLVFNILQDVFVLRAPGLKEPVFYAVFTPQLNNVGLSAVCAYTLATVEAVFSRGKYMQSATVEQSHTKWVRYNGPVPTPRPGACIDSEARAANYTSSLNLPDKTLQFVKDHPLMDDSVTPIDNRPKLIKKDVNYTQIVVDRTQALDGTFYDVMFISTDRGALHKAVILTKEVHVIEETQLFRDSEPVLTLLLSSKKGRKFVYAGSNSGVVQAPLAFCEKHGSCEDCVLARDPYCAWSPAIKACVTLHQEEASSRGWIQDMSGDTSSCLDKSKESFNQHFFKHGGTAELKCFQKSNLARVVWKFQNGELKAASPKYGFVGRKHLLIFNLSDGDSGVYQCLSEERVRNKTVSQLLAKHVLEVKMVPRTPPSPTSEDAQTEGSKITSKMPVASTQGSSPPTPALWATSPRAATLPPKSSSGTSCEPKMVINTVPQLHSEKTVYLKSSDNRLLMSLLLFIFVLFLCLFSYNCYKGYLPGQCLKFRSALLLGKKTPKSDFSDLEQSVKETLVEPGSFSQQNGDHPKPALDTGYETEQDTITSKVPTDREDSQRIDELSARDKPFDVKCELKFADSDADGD
# Tests used:
# MusCD100-His = molecular target: T1, MusCD100-His; assay: ELISA; FIG. 5B
# [1] = molecular target: HuCD100-Fc (in-house prepared) (human, UniProt Q92854 22-734, biotinylated in the Plexin binding and blocking assays (sites not given)); assay: FACS blocking; HuPlexin-B2-HEK293, FIG. 12D
# CynoCD100-His [2] = molecular target: CynoCD100-His (cynomolgus monkey); assay: ELISA; FIG. 5C
# MusCD100-Fc [3] = molecular target: T2, MusCD100-Fc; assay: FACS blocking; MusPlexin-B1-HEK293, FIG. 12F
# [4] = molecular target: T3, full-length mouse CD100 protein …; assay: FACS
# [5] = molecular target: T4, full-length human CD100 protein HuCD100 on cells (human, UniProt Q92854 22-862); assay: FACS
# CynoCD100-His [6] = molecular target: CynoCD100-His (cynomolgus monkey); assay: ELISA
# [7] = molecular target: T4, full-length human CD100 protein HuCD100 …; assay: FACS; HuPBMC cells
# [8] = molecular target: T3, full-length mouse CD100 protein …; assay: FACS
# [9] = molecular target: T4, full-length human CD100 protein HuCD100 …; assay: FACS; remark: listed apart in the source
# [10] = molecular target: T3, full-length mouse CD100 protein …; assay: FACS
# HuCD100-His = HuCD100-His (human, UniProt Q92854 22-734); assay: ELISA; FIG. 5D
# CynoCD100-His [11] = molecular target: CynoCD100-His (cynomolgus monkey); assay: ELISA; FIG. 5F
# MusCD100-Fc [12] = molecular target: T2, MusCD100-Fc; assay: FACS blocking; MusPlexin-B1-HEK293, FIG. 12E
# [13] = molecular target: T4, full-length human CD100 protein HuCD100 …; assay: FACS; Jurkat cells
binder,measurement,setting,value
"Pepinemab (antibody, V domains shown) VH: QVQLVQSGAEVKKPGSSVKVSCKASGYSFSDYYMHWVRQAPGQGLEWMGQINPTTGGASYNQKFKGKATITVDKSTSTAYMELSSLRSEDTAVYYCARYYYGRHFDVWGQGTTVTVSS VL: DIVMTQSPDSLAVSLGERATINCKASQSVDYDGDSYMNWYQQKPGQPPKLLIYAASNLESGVPDRFSGSGSGTDFTLTISSLQAEDVAVYYCQQSNEDPYTFGQGTKLEIK",EC50,MusCD100-His,0.205 nM
same,IC50,[1],2.06 nM
same,EC50,CynoCD100-His [2],0.117 nM
same,IC50,MusCD100-Fc [3],5.44 nM
same,EC50,[4],0.307 nM
same,EC50,[5],0.426 nM
same,EC50,CynoCD100-His [6],0.0938 nM
same,EC50,[7],0.479 nM
same,EC50,[8],0.276 nM
same,EC50,[9],0.608 nM
same,EC50,[10],0.274 nM
same,EC50,HuCD100-His,0.0376 nM
same,EC50,CynoCD100-His [11],0.0993 nM
same,IC50,MusCD100-Fc [12],4.08 nM
same,EC50,[13],0.275 nM
